# According to PMC4613710, “A biophysical study on molecular physiology of the uncoupling proteins of the central nervous system” (Bioscience Reports, 2015):
# B1: human uncoupling protein 2 (His6-ENLYFQG-hUCP2) (natural protein, UniProt P55851 1-309, looked up)
# chain: MVGFKATDVPPTATVKFLGAGTAACIADLITFPLDTAKVRLQIQGESQGPVRATASAQYRGVMGTILTMVRTEGPRSLYNGLVAGLQRQMSFASVRIGLYDSVKQFYTKGSEHASIGSRLLAGSTTGALAVAVAQPTDVVKVRFQAQARAGGGRRYQSTVNAYKTIAREEGFRGLWKGTSPNVARNAIVNCAELVTYDLIKDALLKANLMTDDLPCHFTSAFGAGFCTTVIASPVDVVKTRYMNSALGQYSSAGHCALTMLQKEGPRAFYKGFMPSFLRLGSWNVVMFVTYEQLKRALMAACTSREAPF
# notes: uncoupling protein 2 (UCP2), human; cDNA clone pET21a-UCP2 sub-cloned into pET26b(+); Tetramer is the predominant form in POPC liposomes without SDS; dimers and a few monomers at 83 mM SDS; PDB 2LCK is only viewed as a model of UCP2; also called neuronal UCP
# B2: human uncoupling protein 5 (His6-ENLYFQG-hUCP5) (natural protein, UniProt O95258 1-325, looked up)
# chain: MGIFPGIILIFLRVKFATAAVIVSGHQKSTTVSHEMSGLNWKPFVYGGLASIVAEFGTFPVDLTKTRLQVQGQSIDARFKEIKYRGMFHALFRICKEEGVLALYSGIAPALLRQASYGTIKIGIYQSLKRLFVERLEDETLLINMICGVVSGVISSTIANPTDVLKIRMQAQGSLFQGSMIGSFIDIYQQEGTRGLWRGVVPTAQRAAIVVGVELPVYDITKKHLILSGMMGDTILTHFVSSFTCGLAGALASNPVDVVRTRMMNQRAIVGHVDLYKGTVDGILKMWKHEGFFALYKGFWPNWLRLGPWNIIFFITYEQLKRLQI
# notes: uncoupling protein 5 (UCP5), human; cDNA bought from A.T.C.C., sub-cloned into pET26b(+); Tetramer is the predominant form in POPC liposomes without SDS; dimers and a few monomers at 83 mM SDS; also called neuronal UCP
# B3: human uncoupling protein 4 (His6-ENLYFQG-hUCP4) (natural protein, UniProt O95847 1-323, looked up)
# chain: MSVPEEEERLLPLTQRWPRASKFLLSGCAATVAELATFPLDLTKTRLQMQGEAALARLGDGARESAPYRGMVRTALGIIEEEGFLKLWQGVTPAIYRHVVYSGGRMVTYEHLREVVFGKSEDEHYPLWKSVIGGMMAGVIGQFLANPTDLVKVQMQMEGKRKLEGKPLRFRGVHHAFAKILAEGGIRGLWAGWVPNIQRAALVNMGDLTTYDTVKHYLVLNTPLEDNIMTHGLSSLCSGLVASILGTPADVIKSRIMNQPRDKQGRGLLYKSSTDCLIQAVQGEGFMSLYKGFLPSWLRMTPWSMVFWLTYEKIREMSGVSPF
# notes: uncoupling protein 4 (UCP4), human; cDNA synthesized by GenScript, sub-cloned into pET26b(+); Tetramer is the predominant form in POPC liposomes without SDS; dimers and a few monomers at 83 mM SDS; also called neuronal UCP
# Biological target: the molecule itself
# Assay: native gel or EMSA; semi-native PAGE (12% gel, 2 mM SDS in running buffer only), UCP reconstituted in POPC liposomes, loading buffer lacking SDS, Coomassie stain; bands identified by LC-MS/MS
row,Protein,stoichiometry N
1,B1,4
2,B2,4
3,B3,4

# Biological target: the molecule itself
# Assay: native gel or EMSA; semi-native PAGE (12% gel), UCP reconstituted in POPC liposomes titrated with SDS to 83 mM (about 40x CMC), Coomassie stain; bands identified by LC-MS/MS
row,Protein,stoichiometry N
1,B1,2
2,B2,2
3,B3,2

# Biological target: the molecule itself
# Assay: other fluorescence titration; Trp fluorescence (excitation 295 nm, 25 C) of UCP in POPC liposomes titrated with SDS (0-83.9 mM); maximum intensity against [SDS], Hill fit; Ka1/2 low SDS range (0-10 mM): tetramer to tight dimers; Kb1/2 high SDS range (10-100 mM): tight dimers to loose dimers and monomers
Protein,"Fl Ka1/2 (first transition, tetramer to dimers, [SDS]) [mM SDS]","Fl Kb1/2 (second transition, dimers to loose dimers and monomers, [SDS]) [mM SDS]"
B1,0.61 ± 0.1,7.1 ± 0.3
B2,0.6 ± 0.1,8.9 ± 0.2
B3,0.6 ± 0.1,9.8 ± 0.3

# Biological target: the molecule itself
# Assay: far-UV CD spectroscopy, SDS titration; UCP reconstituted in POPC liposomes titrated with SDS (0-83 mM); normalised theta208/theta222 against [SDS], Hill fit; K1/2 = [SDS] at 50% protein dissociation; tetramer to dimers
row,Protein,CD K1/2 ([SDS] at 50% protein dissociation) [mM SDS]
1,B1,1.1 ± 0.1
2,B2,1 ± 0.1
3,B3,1 ± 0.1
